Data as given in paper doi:10.1101/746180 (bioRxiv, 2020).
Blank lines part the entries; values can stand above or below the binder they belong to. Ends that are not written are not given here.

How the values were obtained:
[1] = target: MBTD1(140-562)-(GSA)6-EPC1(644-672) fusion protein (UniProt Q05BQ5 140-562; Q9H2F5 644-672); assay: ITC
His-MBTD1 = His-MBTD1 (UniProt Q05BQ5 1-628); assay: ITC
His-MBTD1, sequence (Q05BQ5 whole entry): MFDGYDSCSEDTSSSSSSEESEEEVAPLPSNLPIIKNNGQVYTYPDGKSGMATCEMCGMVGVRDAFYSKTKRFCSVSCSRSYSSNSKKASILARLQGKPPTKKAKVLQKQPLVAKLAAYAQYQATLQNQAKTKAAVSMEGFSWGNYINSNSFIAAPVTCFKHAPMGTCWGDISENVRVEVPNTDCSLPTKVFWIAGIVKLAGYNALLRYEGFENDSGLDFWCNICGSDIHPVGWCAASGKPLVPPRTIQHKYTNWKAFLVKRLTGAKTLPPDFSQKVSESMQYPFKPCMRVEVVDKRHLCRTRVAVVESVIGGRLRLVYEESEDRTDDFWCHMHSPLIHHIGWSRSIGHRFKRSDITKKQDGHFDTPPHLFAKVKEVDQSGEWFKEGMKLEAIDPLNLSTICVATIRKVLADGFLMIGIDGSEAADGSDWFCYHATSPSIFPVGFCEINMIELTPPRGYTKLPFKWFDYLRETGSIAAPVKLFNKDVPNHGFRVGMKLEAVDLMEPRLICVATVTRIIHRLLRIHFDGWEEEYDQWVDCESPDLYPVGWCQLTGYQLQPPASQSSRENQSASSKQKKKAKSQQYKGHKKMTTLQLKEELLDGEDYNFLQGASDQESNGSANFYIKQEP

- binding result [1]: binds
B1: H4K20me1 peptide (peptide)
peptide: AKRHRK(Me)VLRDN

- Kd (His-MBTD1): ~67 nM
- stoichiometry N (His-MBTD1): ~1.3
B2: GST-EPC1(644-672) (domain or fragment, UniProt Q9H2F5 644-672, looked up)
chain: QGFVSKTLDSASAQFAASALVTSEQLMGF
